In publication PMC6937562, “Combining SPR with atomic-force microscopy enables single-molecule insights into activation and suppression of the complement cascade” (The Journal of Biological Chemistry, 2019):

Legend:
Conditions in all cases: both partners purified
[1] = target: T1, C3b (human, UniProt P01024 23-667; P01024 749-1663); test: SPR; homemade HJEM2 chip (1% COOH, 99% OH), 313 RU C3b amine-coupled; FH flowed (2 μM to 3.9 nM); Biacore T200, 25 °C, HBS-P pH 7.4; 1:1 steady-state model
T1 construct: complement C3 beta chain, human; Immobilised by amine coupling, via the nascent thioester (physiological) or via the free thiol of hydrolysed C3b; the way is told in each assay's format; also called C3b(H2O); C3b-SH; source: bought: Complement Technologies, Inc. (human plasma-derived)

[2] = target: T1, C3b; test: SPR; homemade HJEM4 chip with maleimide groups, 240 RU hydrolyzed C3b coupled via its free thiol; FH flowed (2 μM to 3.9 nM); Biacore T200, 25 °C, HBS-P pH 7.4; 1:1 steady-state model
[3] = target: T1, C3b; test: SPR; C1 chip, 144 RU C3b amine-coupled; FH flowed (2 μM to 7.8 nM, 2-fold series, duplicates); Biacore T200, 25 °C, HBS-P pH 7.4, 150 mM NaCl, 1 mM MgCl2; 1:1 steady-state model
[4] = target: T1, C3b; test: SPR; C1 chip, 196 RU C3b immobilised physiologically (seed C3b, then seven cycles of FB+FD and C3); FH flowed (2 μM to 7.8 nM); Biacore T200, 25 °C, HBS-P pH 7.4; 1:1 steady-state model
[5] = target: T1, C3b; test: SPR; homemade HJEM7 chip, 143 RU C3b amine-coupled and 174 RU 3′-sialyllactose clicked on; FH (2 μM to 3.9 nM) or FH 19–20 (10 μM to 3.9 nM) flowed; Biacore T200, 25 °C, HBS-P pH 7.4; 1:1 steady-state model
[6] = target: T1, C3b; test: SPR; homemade HJEM7 chip (50% OH, 25% COOH, 25% propargyl), 144 RU C3b amine-coupled; FH (2 μM to 3.9 nM) or FH 19–20 (10 μM to 3.9 nM) flowed; Biacore T200, 25 °C, HBS-P pH 7.4; 1:1 steady-state model

B1: factor H (natural protein, human, UniProt P08603 19-1231, looked up)
chain: EDCNELPPRRNTEILTGSWSDQTYPEGTQAIYKCRPGYRSLGNVIMVCRKGEWVALNPLRKCQKRPCGHPGDTPFGTFTLTGGNVFEYGVKAVYTCNEGYQLLGEINYRECDTDGWTNDIPICEVVKCLPVTAPENGKIVSSAMEPDREYHFGQAVRFVCNSGYKIEGDEEMHCSDDGFWSKEKPKCVEISCKSPDVINGSPISQKIIYKENERFQYKCNMGYEYSERGDAVCTESGWRPLPSCEEKSCDNPYIPNGDYSPLRIKHRTGDEITYQCRNGFYPATRGNTAKCTSTGWIPAPRCTLKPCDYPDIKHGGLYHENMRRPYFPVAVGKYYSYYCDEHFETPSGSYWDHIHCTQDGWSPAVPCLRKCYFPYLENGYNQNYGRKFVQGKSIDVACHPGYALPKAQTTVTCMENGWSPTPRCIRVKTCSKSSIDIENGFISESQYTYALKEKAKYQCKLGYVTADGETSGSITCGKDGWSAQPTCIKSCDIPVFMNARTKNDFTWFKLNDTLDYECHDGYESNTGSTTGSIVCGYNGWSDLPICYERECELPKIDVHLVPDRKKDQYKVGEVLKFSCKPGFTIVGPNSVQCYHFGLSPDLPICKEQVQSCGPPPELLNGNVKEKTKEEYGHSEVVEYYCNPRFLMKGPNKIQCVDGEWTTLPVCIVEESTCGDIPELEHGWAQLSSPPYYYGDSVEFNCSESFTMIGHRSITCIHGVWTQLPQCVAIDKLKKCKSSNLIILEEHLKNKKEFDHNSNIRYRCRGKEGWIHTVCINGRWDPEVNCSMAQIQLCPPPPQIPNSHNMTTTLNYRDGEKVSVLCQENYLIQEGEEITCKDGRWQSIPLCVEKIPCSQPPQIEHGTINSSRSSQESYAHGTKLSYTCEGGFRISEENETTCYMGKWSSPPQCEGLPCKSPPEISHGVVAHMSDSYQYGEEVTYKCFEGFGIDGPAIAKCLGEKWSHPPSCIKTDCLSLPSFENAIPMGEKKDVYKAGEQVTYTCATYYKMDGASNVTCINSRWTGRPTCRDTSCVNPPTVQNAYIVSRQMSKYPSGERVRYQCRSPYEMFGDEEVMCLNGNWTEPPQCKDSTGKCGPPPPIDNGDITSFPLSVYAPASSVEYQCQNLYQLEGNKRITCRNGQWSEPPKCLHPCVISREIMENYNIALRWTAKQKLYSRTGESVEFVCKRGYRLSSRSHTLRTTCWDGKLEYPTCAKR
notes: complement factor H, human, 155-kDa serum glycoprotein of 20 CCP modules; Free FH: flowed as analyte in SPR, or amine-coupled directly to the AFM tip; also called FH; CFH; source: isolated from human plasma (TCS Biosciences Ltd.)
Kd [1]: 50 nM | Kd [2]: 180 nM | Kd [3]: 230 nM | Kd [4]: 130 nM | Kd [5]: 90 nM | Kd [6]: 70 nM
